From patent publication US20260166154A1, “METHODS FOR TREATING OBESITY” (AMGEN INC., priority 2022, published 2026)

Columns and labels:
[1] = Phase 1 SAD/MAD clinical study: body weight, BMI, waist circumference; assay type: in vivo, human; conditions: for decrease in body weight: MAD 420 mg Q4W
Procedure: Eligible participants were women of non-reproductive potential and men aged 18 to 65 years with a body mass index (BMI) between 30.0 kg/m2 and 40.0 kg/m2 and HbA1c≤6.5% and/or a fasting glucose of […]125 mg/dl. Participants had normal vital signs, 12-lead electrocardiogram results and clinical laboratory tests at the time of randomization.
(§1) Enrollment into the SAD and MAD cohorts was sequential.
(§2) No missing data was imputed.

[2] = Phase 1 MAD cohorts: pharmacodynamic markers (fasting glucose, glucagon, HbA1c, hs-CRP); assay type: in vivo, human; conditions: for hs-CRP reduction: day 127
Description: as §1, §2

[3] = Predicted exposure multiples based on NOAEL established in mice; design: species or system mouse; conditions: NOAEL 150 mg/kg in mice
Description: (§3) The rationale for dose selection for Part C is based on the available PK data from this ongoing FIH study cohorts 1 to 11 (Part A and Part B) and the NOAEL exposures established based on 13-week GLP repeat-dose studies in mouse and cynomolgus monkeys.

[4] = Phase 1 SAD/MAD clinical study: safety and tolerability (TEAEs, vital signs)
Procedure: This was a first-in-human, double-blind, randomized, placebo-controlled study comprised of two parts: single ascending dose (SAD) and multiple ascending dose (MAD) in participants with obesity.
Participants were randomly assigned to receive AMG133 or placebo in a ratio of 3:1. […] The MAD evaluated 3 doses given every 4 weeks on Days 1, 29 and 57. […] Enrollment into the SAD and MAD cohorts was sequential. Subsequent cohorts were dosed after the dosing regimen in the preceding cohort had been recommended by the Dose Level Review Team (DLRT) to be safe and well tolerated based on the safety and laboratory data through at least day 15. […] Placebo was provided as normal saline, the volume matching the investigational drug at each dose level.
The primary endpoints were the participant incidence of treatment-emergent adverse events, changes in laboratory safety tests, vital signs, and 12-lead electrocardiograms. […] The exploratory endpoints were pharmacodynamic parameters including, but not limited to, concentrations of fasting glucose, insulin, c-peptide, glucagon,, hemoglobin A1c, changes in body weight, waist circumference, and BMI.
The sample size for this trial was not based on any statistical inferences. As the trial was an exploratory first-in-human study with a small sample size, all pharmacokinetic, pharmacodynamic and safety parameters were analyzed descriptively. Participants who withdrew from the study prior to day 15 in the SAD or day 36 in the MAD were replaced so that the target numbers of participants for safety review and data collection would be achieved; replacement participants were assigned to receive the same treatment as the withdrawn participant. […] The safety analysis set was the same as the full analysis set. […] No missing data was imputed.

[5] = Predicted exposure multiples based on NOAEL established in cynomolgus monkeys; design: species or system cynomolgus monkey; conditions: NOAEL 120 mg/kg in cynomolgus monkeys
Description: as §3

[6] = Phase 1 SAD/MAD clinical study (NCT04478708): pharmacokinetics; assay type: in vivo, human
Description: as §1, §2

[7] = Intact AMG 133, cohort 12, 420 mg SC
[8] = Intact AMG 133, cohort 13, 420 mg SC
[9] = Total AMG 133, cohort 12, 420 mg SC
[10] = Total AMG 133, cohort 13, 420 mg SC

Substance: maridebart cafraglutide [AMG 133]
- maximal reduction of body weight from baseline ([1]; MAD 140 mg Q4W, after 3 doses, day 78): 7.44%
- reduction of body weight from baseline ([1]; MAD 140 mg Q4W, post-dose day 7): 1.97%
- waist circumference ([1]; MAD 140 mg and 420 mg): dose-dependent decrease
- waist circumference ([1]; MAD 280 mg): fluctuations in waist circumference changes
- decrease in body weight ([1]; day 7): −4.86%
- decrease in body weight ([1]; day 85): −14.5%
- duration of body weight reduction ([1]; MAD cohorts, multiple doses): maintained until end of study day 207
- change from baseline in BMI ([1]; SAD and MAD): followed a similar pattern as the change in body weight
- duration of body weight decrease ([1]; all SADs except lowest dose 21 mg): maintained until day 150
- change in mean body weight from baseline ([1]; all dose levels (SADs and MADs)): decreases in mean body weight from baseline
- maximal decrease of body weight from baseline ([1]; single dose 21 mg, day 29): 2.39%
- mean percent change of body weight from baseline ([1]; single dose 21 mg, post-dose day 6): −1.59%
- mean percent change of body weight from baseline ([1]; single dose 840 mg, day 6): −2.85%
- maximal decrease of body weight from baseline ([1]; single dose 840 mg, day 92): 8.24%
- hs-CRP reduction ([2]; MAD 140 mg): normalized to baseline
- glucagon ([2]; MAD 280 mg, day 85 and day 127): greatest reduction in glucagon was observed at day 85 which normalized by day 127
- fasting glucose ([2]; MAD 420 mg, safety follow up (day 127)): lower glucose levels were maintained
- fasting glucose ([2]; MAD 140 and 280 mg, safety follow up (day 127)): returned to above baseline
- fasting glucose ([2]; MAD 140 and 420 mg, day 29 and 85): decreased in a dose-responsive manner
- hs-CRP reduction ([2]; MAD 280 and 420 mg): sustained until day 127
- hs-CRP change from baseline ([2]; MAD cohorts): dose-responsive decrease
- HbA1c levels ([2]; MAD, all three dose groups, normal range at baseline): decreased in all three dose groups but trended towards baseline at day 127
- Predicted Exposure Multiples Mouse AUC [3, 7]: ~42.4 fold
- Predicted Exposure Multiples Mouse Cmax [3, 7]: ~43 fold
- Predicted Exposure Multiples Mouse AUC [3, 8]: ~40.6 fold
- Predicted Exposure Multiples Mouse Cmax [3, 8]: ~41.3 fold
- Predicted Exposure Multiples Mouse AUC [3, 9]: 51 fold
- Predicted Exposure Multiples Mouse Cmax [3, 9]: 54.3 fold
- Predicted Exposure Multiples Mouse AUC [3, 10]: ~47.5 fold
- Predicted Exposure Multiples Mouse Cmax [3, 10]: ~50.9 fold
- heart rate ([4]; MAD cohorts): the 280 mg cohort had higher heart rates than the 140 mg or 420 mg cohort
- nausea and vomiting ([4]; MAD cohorts): all participants who received AMG 133 experienced mild nausea and vomiting
- subjects reporting mild GI-related adverse events (mainly nausea, vomiting, diarrhea) ([4]; MAD cohorts 7 to 10, after the first dose): Approximately 90%
- subjects experiencing GI-related adverse events ([4]; MAD cohorts 7 to 10, after the second dose): less than 5%
- serious adverse events or deaths ([4]; MAD cohorts 7 to 10, any dose): no serious adverse events or deaths reported after any of the doses
- subjects who discontinued the study prior to receiving the second dose ([4]; MAD trial): Approximately 26%
- serious TEAEs, TEAEs leading to permanent discontinuation, severe TEAEs ([4]; SAD and MAD): No serious TEAEs, TEAEs leading to permanent discontinuation, or severe TEAEs were reported
- tolerability ([4]; SAD and MAD participants): tolerated AMG 133 well
- dyspepsia ([4]; SAD cohorts): more frequently reported with lower doses (70 mg and 140 mg)
- heart rate ([4]; SAD cohorts): increased with a single dose of 280, 560 or 840 mg AMG 133 but not in a dose-dependent manner
- nausea and vomiting ([4]; SAD cohorts): reported in participants treated with ≥70 mg AMG 133
- severity of GI-related TEAEs ([4]; SAD cohorts): all GI-related TEAEs were mild except one participant in the 140 mg cohort had moderate GI symptoms
- serious adverse events or deaths ([4]; SAD cohorts 1 to 6 and 11): no serious adverse events or deaths have been reported
- subjects who withdrew consent due to GI-related adverse events ([4]; cohort 9, after 420 mg dose on day 1): 50%
- blood pressure ([4]; single dose or multiple doses): No meaningful changes in blood pressure
- Predicted Exposure Multiples Monkey AUC [5, 8]: ~43.2 fold
- Predicted Exposure Multiples Monkey AUC [5, 9]: 48.9 fold
- Predicted Exposure Multiples Monkey AUC [5, 10]: ~45.5 fold
- dose proportionality of pharmacokinetics ([6]; doses 21 mg to 840 mg): dose-proportional
- pharmacokinetics linearity based on Cmax ([6]; preliminary review, FIH SAD and MAD, AUC data pending): linear, dose proportional kinetics
